Data from US20250154231A1.
Read-outs that look alike come from different tables or passages of the source.

How the values were obtained:
Test in all cases: cell-based or functional assay
[1] = molecular target: SARS-CoV-2 Gamma spike (S) protein (SARS-CoV-2) (UniProt P0DTC2)
[2] = molecular target: SARS-CoV-2 spike (S) protein, Omicron BA.1.1 (SARS-CoV-2) (UniProt P0DTC2)
[3] = molecular target: SARS-CoV-2 Omicron BA.2 spike (S) protein (SARS-CoV-2) (UniProt P0DTC2)
[4] = molecular target: SARS-CoV-2 spike (S) protein, Omicron BA.4.6 (SARS-CoV-2) (UniProt P0DTC2)
[5] = molecular target: SARS-CoV-2 Beta spike (S) protein (SARS-CoV-2) (UniProt P0DTC2)
[6] = molecular target: SARS-CoV-2 Delta spike (S) protein (SARS-CoV-2) (UniProt P0DTC2)
[7] = molecular target: SARS-CoV-2 Victoria spike (S) protein (SARS-CoV-2) (UniProt P0DTC2)
[8] = molecular target: SARS-CoV-2 Alpha spike (S) protein (SARS-CoV-2) (UniProt P0DTC2)
[9] = molecular target: SARS-CoV-2 spike (S) protein, Omicron BA.4/5 (SARS-CoV-2) (UniProt P0DTC2)
[10] = molecular target: SARS-CoV-2 spike (S) protein, Omicron BA.1 (SARS-CoV-2) (UniProt P0DTC2)
[11] = molecular target: SARS-CoV-2 spike (S) protein, Omicron BA.2 (SARS-CoV-2) (UniProt P0DTC2)
[12] = molecular target: SARS-CoV-2 Omicron BA.1 spike (S) protein of the live isolate (SARS-CoV-2) (UniProt P0DTC2)
[13] = molecular target: SARS-CoV-2 spike (S) protein, Omicron BA.3 (SARS-CoV-2) (UniProt P0DTC2)
[14] = molecular target: SARS-CoV-2 spike (S) protein, Victoria strain (SARS-CoV-2) (UniProt P0DTC2)
[15] = molecular target: SARS-CoV-2 Omicron BA.1.1 spike (S) protein (SARS-CoV-2) (UniProt P0DTC2)
[16] = molecular target: SARS-CoV-2 spike (S) protein, Omicron BA.2.75 (SARS-CoV-2) (UniProt P0DTC2)
[17] = molecular target: SARS-CoV-2 spike (S) protein, Omicron BA.2.75 (SARS-CoV-2) (UniProt P0DTC2); remark: listed apart in the source
[18] = molecular target: SARS-CoV-2 spike (S) protein, Omicron BJ.1 (SARS-CoV-2) (UniProt P0DTC2)
[19] = molecular target: SARS-CoV-2 spike (S) protein, Omicron BA.4.6 (SARS-CoV-2) (UniProt P0DTC2); remark: listed apart in the source
[20] = molecular target: SARS-CoV-2 spike (S) protein, Omicron BA.4/5 (SARS-CoV-2) (UniProt P0DTC2); remark: listed apart in the source
[21] = molecular target: SARS-CoV-2 spike (S) protein, Omicron BA.2.75.2 (SARS-CoV-2) (UniProt P0DTC2)
[22] = molecular target: SARS-CoV-2 spike (S) protein, Omicron BA.2 (SARS-CoV-2) (UniProt P0DTC2); remark: listed apart in the source
[23] = molecular target: SARS-CoV-2 spike (S) protein, Omicron BA.2.3.20 (SARS-CoV-2) (UniProt P0DTC2)
[24] = molecular target: SARS-CoV-2 spike (S) protein, Victoria strain (SARS-CoV-2) (UniProt P0DTC2); remark: listed apart in the source
[25] = molecular target: SARS-CoV-2 Omicron BA.1.1 spike (S) protein, pseudovirus construct (SARS-CoV-2) (UniProt P0DTC2)
[26] = molecular target: SARS-CoV-2 Omicron BA.2 spike (S) protein, pseudovirus construct (SARS-CoV-2) (UniProt P0DTC2)
[27] = molecular target: SARS-CoV-2 Omicron BA.3 spike (S) protein, pseudovirus construct (SARS-CoV-2) (UniProt P0DTC2)
[28] = molecular target: SARS-CoV-2 Omicron BA.1 spike (S) protein, pseudovirus construct (SARS-CoV-2) (UniProt P0DTC2)

Known Antibody D (AZD8895), sequence (VH): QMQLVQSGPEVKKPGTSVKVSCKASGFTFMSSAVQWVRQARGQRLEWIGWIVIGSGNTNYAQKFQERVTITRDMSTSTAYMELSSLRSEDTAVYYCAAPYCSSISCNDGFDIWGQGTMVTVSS
Known Antibody D (AZD8895), sequence (VL): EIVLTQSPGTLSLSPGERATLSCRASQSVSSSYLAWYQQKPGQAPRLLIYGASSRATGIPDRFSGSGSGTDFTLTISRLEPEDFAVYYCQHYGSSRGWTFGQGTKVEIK

Substance | IC50, authentic virus neutralization [1] | IC50, pseudoviral neutralization [2] | pseudovirus neutralisation IC50 [2] | IC50, authentic virus neutralization [3] | IC50, pseudoviral neutralization [4] | IC50, authentic virus neutralization [5] | IC50, authentic virus neutralization [6] | IC50, authentic virus neutralization [7] | IC50, authentic virus neutralization [8] | IC50, pseudoviral neutralization [9] | pseudovirus neutralisation IC50 [9] | IC50, pseudoviral neutralization [10] | pseudovirus neutralisation IC50 [10] | IC50, pseudoviral neutralization [11] | pseudovirus neutralisation IC50 [11] | IC50 (ug/ml), pseudovirus [25] | IC50 (ug/ml), pseudovirus [26] | IC50 (ug/ml), pseudovirus [27] | IC50 (ug/ml), pseudovirus [7] | IC50 (ug/ml), pseudovirus [28] | other results
ADG10 (antibody) | 0.003 µg/mL | > 10 µg/mL | > 10 µg/mL | > 10 µg/mL | > 10 µg/mL | 0.011 µg/mL | 0.026 µg/mL | 0.006 µg/mL | 0.01 µg/mL | > 10 µg/mL | > 10 µg/mL | > 10 µg/mL | > 10 µg/mL | > 10 µg/mL | > 10 µg/mL |  |  |  |  |  | IC50, authentic virus neutralization [12]: > 10 µg/mL; IC50, pseudoviral neutralization [13]: > 10 µg/mL; pseudovirus neutralisation IC50 [13]: > 10 µg/mL; IC50, pseudoviral neutralization [14]: 0.007 µg/mL; pseudovirus neutralisation IC50 [14]: 0.007 µg/mL; IC50, authentic virus neutralization [15]: > 10 µg/mL; pseudovirus neutralisation IC50 [16]: > 10 µg/mL
ADG30 (antibody) | 0.002 µg/mL | > 10 µg/mL | > 10 µg/mL | > 10 µg/mL | > 10 µg/mL | 0.029 µg/mL | 0.033 µg/mL | 0.007 µg/mL | 0.016 µg/mL | > 10 µg/mL | > 10 µg/mL | > 10 µg/mL | > 10 µg/mL | > 10 µg/mL | > 10 µg/mL |  |  |  |  |  | IC50, authentic virus neutralization [12]: > 10 µg/mL; IC50, pseudoviral neutralization [13]: > 10 µg/mL; pseudovirus neutralisation IC50 [13]: > 10 µg/mL; IC50, pseudoviral neutralization [14]: 0.014 µg/mL; pseudovirus neutralisation IC50 [14]: 0.014 µg/mL; IC50, authentic virus neutralization [15]: > 10 µg/mL; pseudovirus neutralisation IC50 [16]: > 10 µg/mL
AZD7442 |  | 0.806 µg/mL | 0.806 µg/mL |  | > 10 µg/mL |  |  |  |  | 0.065 µg/mL | 0.065 µg/mL | 0.232 µg/mL | 0.232 µg/mL | 0.008 µg/mL | 0.008 µg/mL |  |  |  |  |  | IC50, pseudoviral neutralization [13]: 0.065 µg/mL; pseudovirus neutralisation IC50 [13]: 0.065 µg/mL; IC50, pseudoviral neutralization [14]: 0.001 µg/mL; pseudovirus neutralisation IC50 [14]: 0.001 µg/mL; pseudovirus neutralisation IC50 [16]: 0.017 µg/mL
AZD7442 (a combination of AZD8895 and AZD1061) |  |  |  |  |  |  |  |  |  |  |  |  |  |  |  |  |  |  |  |  | IC50, pseudoviral neutralization [17]: 0.017 µg/mL; IC50, pseudoviral neutralization [18]: 2.73 µg/mL; IC50, pseudoviral neutralization [19]: > 10 µg/mL; IC50, pseudoviral neutralization [20]: 0.065 µg/mL; IC50, pseudoviral neutralization [21]: > 10 µg/mL; IC50, pseudoviral neutralization [22]: 0.008 µg/mL; IC50, pseudoviral neutralization [23]: 0.025 µg/mL; IC50, pseudoviral neutralization [24]: 0.001 µg/mL
AZD7442 (antibody) | 0.006 µg/mL |  |  | 0.052 µg/mL |  | 0.012 µg/mL | 0.005 µg/mL | 0.009 µg/mL | 0.007 µg/mL |  |  |  |  |  |  |  |  |  |  |  | IC50, authentic virus neutralization [12]: 0.273 µg/mL; IC50, authentic virus neutralization [15]: 3.82 µg/mL
Known Antibody A (REGN 10987) |  |  |  |  |  |  |  |  |  |  |  |  |  |  |  | > 10 µg/mL | 0.616 µg/mL | > 10 µg/mL | 0.002 µg/mL | > 10 µg/mL | 
Known Antibody B (REGN 10933) |  |  |  |  |  |  |  |  |  |  |  |  |  |  |  | > 10 µg/mL | > 10 µg/mL | > 10 µg/mL | 0.001 µg/mL | > 10 µg/mL | 
Known Antibody C (AZD1061) |  |  |  |  |  |  |  |  |  |  |  |  |  |  |  | > 10 µg/mL | 0.008 µg/mL | 0.019 µg/mL | 0.002 µg/mL | 0.308 µg/mL | 
Known Antibody D (AZD8895) |  |  |  |  |  |  |  |  |  |  |  |  |  |  |  | 0.1 µg/mL | 1.33 µg/mL | > 10 µg/mL | 0.001 µg/mL | 0.246 µg/mL | 
